In US20060110388A1 (APPLIED MOLECULAR EVOLUTION, published 2006):
Values joined by “and” are separate entries in the source; they are usually repeats but may differ in a detail not shown here. Equal entries are not always repeated. Each block holds one binder with its values, some of them ahead of it.

What was measured:
β Amyloid peptide 1-40 [1] = biological target: T1, β Amyloid peptide 1-40 (human, UniProt P05067 672-711); test: KinExA, mAb; against m266
T1 construct: domain: β Amyloid peptide 1-40; Biotinylated peptide 1-40 (Biosource) on avidin Sepharose only captured free antibody in KinExA; also called Aβ 1-40; human Aβ (1-40)
T1 sequence (P05067 672-711 limits assumed): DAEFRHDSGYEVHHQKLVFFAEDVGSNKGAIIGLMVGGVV
Experimental: (§1) For KinExA™ kₒₙ and koff measurements, antigen and antibody were prepared as described above. Antigen and antibody samples at 2× active concentration were prepared in PBSA with 0.2% BSA. Samples were mixed 1:1 and the timing for the experiment started. Typical 1× concentrations were 1 nM antibody active site concentration ([…]) and 2 nM antigen (8.6 ng/mL). A KinExA™ instrument (Sapidyne) and a kineticsdirect run file were used to follow the reaction. Time for each measurement was determined using the manufacturer's instructions. Free antibody remaining in the reaction was captured using β amyloid coated beads packed into the flow cell washed with PBSA and detected at each time point using 1:250 Goat anti-human Cy5 (Jackson) in PBSA. The flow cell was then flushed and recharged with beads for the next measurement, the process continued until a complete decay curve obtained. The data was analyzed using the KinExA™ Inject software.
(§2) Association rate constants (kₒₙ) of m266 and antibodies of the present invention with Aβ were determined by KinExA™, using methods as described above in Example 1. The results of two separate kₒₙ determinations by KinExA™, in which separate preparations of antibodies were used, are provided in Tables 7 and 8.

β Amyloid peptide 1-40 [2] = biological target: T1, β Amyloid peptide 1-40; test: KinExA, mAb, equilibration 16 h
Experimental: Typical 1× concentrations were 10 pM of antibody active sites (0.75 ng/mL) and an upper antigen concentration of 100 pM (0.43 ng/mL). […] A KinExA™ instrument (Sapidyne) and standard KD run file were then used to determine the KD of the system. Briefly, the KinExA™ flow cell was charged with the β Amyloid peptide coated beads and washed with PBSA. For the first sample, free antibody in solution was captured by the beads washed with PBSA and detected using 1:250 Goat anti-human Cy5 (Jackson Immunochemicals) in PBSA. The flow cell was then flushed, re-charged with beads and the next sample analyzed. The process was repeated until all 12 samples were analyzed.
as §1

β Amyloid peptide 1-40 [3] = biological target: T1, β Amyloid peptide 1-40; test: KinExA, mAb
Experimental: as §1, §2

β Amyloid peptide 1-40 [4] = biological target: T1, β Amyloid peptide 1-40; test: BIAcore; against m266
Experimental: (§3) BIAcore™ is an automated biosensor system that measures molecular interactions (Karlsson, et al. (1991) J. Immunol. Methods 145: 229-240). BIAcore™ analyses described herein were carried out at 25° C. In these experiments, antibody was immobilized at low density on a BIAcore™ CM5 or B1 chip. For the m266 antibody goat anti-mouse Fc (Jackson Immunoresearch) immobilized on CM5 in flow cell 2 was used for measuring binding constants. Goat anti-mouse was used as control antibody in flow cell 1. For the humanized antibodies, protein A or protein A/G was immobilized via amine coupling to flow cells 1 and 2 of a B1 or CM5 sensor chip.
(§4) Antibody was then captured only to flow cell 2 at desired levels (usually a 10-60 second injection of antibody) and allowed to stabilize for 5 minutes. For these experiments, a fresh aliquot of Aβ 1-40 was thawed and then diluted 1:10 in HBS-EP running buffer. The 1:10 dilution was used to make up a 200 nM Aβ solution which was serially diluted (1:2 dilutions) to a lowest concentration of 6.25 nM. Each concentration was injected over the surface for 5 minutes at a flow rate of 50 μl/min (250 μl total). The Aβ and antibody were eluted from both flow cells with a 40s injection of glycine pH 1.5. The signal is allowed to stabilize for 2 minutes before the next cycle. The data from flow cell 1 is subtracted from flow cell 2 to account for any bulk shifts due to buffer differences or non-specific binding to the sensor chip or Protein A. The various concentrations were injected randomly and each concentration was run in duplicate. Two control runs of buffer only were used to control for any dissociation of antibody from the capture surface. The data was analyzed using the Biaevalution™ software. A 1:1 model with mass transfer and a local Rmax was used as the best fit for the data.
Concentrations of human Aβ (1-40) from 200 nM to 1.6 nM in 2-fold serial dilution were used to obtain on-rate constant. The upper half of Table 6 represents determinations made with a first set of antibody preparations, while the lower half represents determinations made with a second set of antibody preparations

β Amyloid peptide 1-40 [5] = biological target: T1, β Amyloid peptide 1-40; test: KinExA, mAb; against m266; remark: listed apart in the source
Experimental: (§5) Typical 1× concentrations were 10 pM of antibody active sites (0.75 ng/mL) and an upper antigen concentration of 100 pM (0.43 ng/mL). The samples were then allowed to equilibrate for 24-72 hours at room temperature. A KinExA™ instrument (Sapidyne) and standard KD run file were then used to determine the KD of the system. Briefly, the KinExA™ flow cell was charged with the β Amyloid peptide coated beads and washed with PBSA. For the first sample, free antibody in solution was captured by the beads washed with PBSA and detected using 1:250 Goat anti-human Cy5 (Jackson Immunochemicals) in PBSA. The flow cell was then flushed, re-charged with beads and the next sample analyzed. The process was repeated until all 12 samples were analyzed.

β Amyloid peptide 1-40 [6] = biological target: T1, β Amyloid peptide 1-40; test: BIAcore, mAb captured, Aβ 1-40 injected, first set of preparations
Experimental: as §3, §4
Concentrations of human Aβ (1-40) from 200 nM to 1.6 nM in 2-fold serial dilution were used to obtain on-rate constant. […]

β Amyloid peptide 1-40 [7] = biological target: T1, β Amyloid peptide 1-40; test: KinExA, mAb; remark: listed apart in the source
Experimental: as §5

β Amyloid peptide 1-40 [8] = biological target: T1, β Amyloid peptide 1-40; test: BIAcore, mAb captured by anti-mouse Fc, Aβ 1-40 injected, first set of preparations
Experimental: as §3
Antibody was then captured only to flow cell 2 at desired levels (usually a 10-60 second injection of antibody) and allowed to stabilize for 5 minutes. For these experiments, a fresh aliquot of Aβ 1-40 was thawed and then diluted 1:10 in HBS-EP running buffer. The 1:10 dilution was used to make up a 200 nM Aβ solution which was serially diluted (1:2 dilutions) to a lowest concentration of 6.25 nM. Each concentration was injected over the surface for 5 minutes at a flow rate of 50 μl/min (250 μl total). The Aβ and antibody were eluted from both flow cells with a 40s injection of glycine pH 1.5. The signal is allowed to stabilize for 2 minutes before the next cycle. […] The data was analyzed using the Biaevalution™ software. […]

β Amyloid peptide 1-40 [9] = biological target: T1, β Amyloid peptide 1-40; test: KinExA, mAb, single experiment, separate antibody preparation
Experimental: as §1
(§6) Association rate constants (kₒₙ) of m266 and antibodies of the present invention with Aβ were determined by KinExA™, using methods as described above in Example 1. […]
(§7) ^aNumbers in bold are the averages calculated from individual experiments. ^bA separate preparation of antibodies was used for these experiments. ^cA separate preparation of antigen was used for these experiments.

β Amyloid peptide 1-40 [10] = biological target: T1, β Amyloid peptide 1-40; test: KinExA, mAb, single experiment
Experimental: as §5

β Amyloid peptide 1-40 [11] = biological target: T1, β Amyloid peptide 1-40; test: BIAcore; m266 is the reference
β Amyloid peptide 1-40 [12] = biological target: T1, β Amyloid peptide 1-40; test: KinExA, mAb, single experiment, separate antibody and antigen preparations
Experimental: as §1, §6, §7

β Amyloid peptide 1-40 [13] = biological target: T1, β Amyloid peptide 1-40; test: KinExA, mAb, average of the experiments
Experimental: as §5

β Amyloid peptide 1-40 [14] = biological target: T1, β Amyloid peptide 1-40; test: KinExA, mAb, single experiment, separate antigen preparation
Experimental: as §1, §6, §7

β Amyloid peptide 1-40 [15] = biological target: T1, β Amyloid peptide 1-40; test: KinExA, mAb, average of the experiments; remark: listed apart in the source
Experimental: as §1, §2

β Amyloid peptide 1-40 [16] = biological target: T1, β Amyloid peptide 1-40; test: KinExA, mAb, average of the experiments; remark: listed apart in the source
Experimental: as §1, §2

β Amyloid peptide 1-40 [17] = biological target: T1, β Amyloid peptide 1-40; test: KinExA, mAb, single experiment; remark: listed apart in the source
Experimental: as §1, §2

β Amyloid peptide 1-40 [18] = biological target: T1, β Amyloid peptide 1-40; test: KinExA, mAb, single experiment; remark: listed apart in the source
Experimental: as §1, §2

β Amyloid peptide 1-40 [19] = biological target: T1, β Amyloid peptide 1-40; test: KinExA, mAb; m266 is the reference
β Amyloid peptide 1-40 [20] = biological target: T1, β Amyloid peptide 1-40; test: KinExA, mAb; m266 is the reference; remark: listed apart in the source
Experimental: as §1, §2

Fold increase in kon (β Amyloid peptide 1-40 [1]): 3 fold
Kd (β Amyloid peptide 1-40 [2]): 0.122 nM
koff (β Amyloid peptide 1-40 [2]): 0.000214 s⁻¹
kon (β Amyloid peptide 1-40 [2]): 1.76e+06 M⁻¹ s⁻¹
kon (β Amyloid peptide 1-40 [3]): 630000 M⁻¹ s⁻¹
Fold Increase (kon) (β Amyloid peptide 1-40 [4]): 5 fold
Fold increase in affinity (β Amyloid peptide 1-40 [5]): 0.11 fold
kon (β Amyloid peptide 1-40 [6]): 590000 M⁻¹ s⁻¹
Kd (β Amyloid peptide 1-40 [7]): 0.674 nM
B1: 1B7 monoclonal antibody (IgG1) (antibody, V domains shown)
VH: EVQLVESGGGLVKPGGSLRLSCAASGFTFSRYSMSWVRQAPGKGLEWVGQINSRGNSTYYPDTVKGRFTISRDDSKNTLYLQMNSLKTEDTAVYYCTTGDFWGQGTLVTVSS
VL: DIVMTQTPLSLSVTPGQPASISCRSSQSLIYSDGNAYLHWYLQKPGQSPQLLIYKVSNRFSGVPDRFSGSGSGTDFTLKISRVEAEDVGVYYCSQSTHSPWTFGGGTKVEIK

Kd (β Amyloid peptide 1-40 [2]): 0.0765 nM
koff (β Amyloid peptide 1-40 [2]): 6.73e-06 s⁻¹
kon (β Amyloid peptide 1-40 [2]): 88000 M⁻¹ s⁻¹
kon (β Amyloid peptide 1-40 [8]): 130000 M⁻¹ s⁻¹
kon (β Amyloid peptide 1-40 [9]): 186000 M⁻¹ s⁻¹
Kd (β Amyloid peptide 1-40 [10]): 0.0675 nM and 0.0854 nM
Fold Increase (kon) (β Amyloid peptide 1-40 [11]): 1 fold
kon (β Amyloid peptide 1-40 [12]): 240000 M⁻¹ s⁻¹
Kd (β Amyloid peptide 1-40 [13]): 0.0765 nM
kon (β Amyloid peptide 1-40 [14]): 157000 M⁻¹ s⁻¹
kon (β Amyloid peptide 1-40 [15]): 230000 M⁻¹ s⁻¹
kon (β Amyloid peptide 1-40 [16]): 154000 M⁻¹ s⁻¹
kon (β Amyloid peptide 1-40 [17]): 210000 M⁻¹ s⁻¹ and 240000 M⁻¹ s⁻¹
kon (β Amyloid peptide 1-40 [18]): 129000 M⁻¹ s⁻¹ and 127000 M⁻¹ s⁻¹ and 88000 M⁻¹ s⁻¹
Fold increase in affinity (β Amyloid peptide 1-40 [19]): 1 fold
Fold increase in kon (β Amyloid peptide 1-40 [20]): 1 fold
B2: m266 monoclonal antibody (antibody, V domains shown)
VH: EVKLVESGGGLVQPGGSLKLSCAVSGFTFSRYSMSWVRQTPEKRLELVAQINSVGNSTYYPDTVKGRFTISRDNAEYTLSLQMSGLRSDDTATYYCASGDYWGQGTTLTVSS
VL: DVVMTQTPLSLPVSLGDQASISCRSSQSLIYSDGNAYLHWFLQKPGQSPKLLIYKVSNRFSGVPDRFSGSGSGTDFTLKISRVETEDLGVYFCSQSTHVPWTFGGGTKLEIK
modifications: CDR H2 N-glycosylated at the Asn-Ser-Thr sequence
notes: Captured by goat anti-mouse Fc in BIAcore (mouse Fc); also called mouse antibody 266
